Reference: US20100297122A1

Biological target: zTNF4 (UniProt Q9Y275)
Assay: cell-based or functional assay

Sequence of Atacicept (chain): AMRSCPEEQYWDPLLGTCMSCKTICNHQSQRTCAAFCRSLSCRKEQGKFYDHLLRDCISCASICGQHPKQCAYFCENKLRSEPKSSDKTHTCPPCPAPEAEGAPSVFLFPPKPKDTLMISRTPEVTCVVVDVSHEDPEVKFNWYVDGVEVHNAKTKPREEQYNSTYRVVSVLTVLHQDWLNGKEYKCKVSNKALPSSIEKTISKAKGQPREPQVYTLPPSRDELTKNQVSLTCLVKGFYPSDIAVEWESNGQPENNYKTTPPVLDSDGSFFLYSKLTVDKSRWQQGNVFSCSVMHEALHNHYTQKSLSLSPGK
Sequence of UniProt Q9Y275 (Q9Y275 134-285 limits assumed): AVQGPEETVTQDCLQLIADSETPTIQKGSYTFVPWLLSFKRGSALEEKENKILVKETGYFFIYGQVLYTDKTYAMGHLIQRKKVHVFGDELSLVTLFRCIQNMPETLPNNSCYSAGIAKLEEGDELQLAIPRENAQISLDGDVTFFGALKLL

Atacicept (Fc fusion) gave a Biological activity (U/mL); Atacicept 25/1; 1 Mo +5° C. of 137000 U/mL, a Biological activity (U/mL); Atacicept 25/1; 1 Mo+25° C. of 134000 U/mL and a Biological activity (U/mL); Atacicept 25/1; 2 Mo +5° C. of 135000 U/mL. For the same substance, the Biological activity (U/mL); Atacicept 25/1; 2 Mo+25° C. was 125000 U/mL, the Biological activity (U/mL); Atacicept 25/1; 3 Mo +5° C. was 136000 U/mL and the Biological activity (U/mL); Atacicept 25/1; 3 Mo+25° C. was 132000 U/mL. It also gave a Biological activity (U/mL); Atacicept 25/1; 6 Mo +5° C. of 127000 U/mL, a Biological activity (U/mL); Atacicept 25/1; 6 Mo+25° C. of 118000 U/mL and a Biological activity (U/mL); Atacicept 25/1; 9 Mo +5° C. of 147000 U/mL. The Biological activity (U/mL); Atacicept 25/1; 12 Mo +5° C. was 131000 U/mL, the Biological activity (U/mL); Atacicept 25/1; 18 Mo +5° C. was 108000 U/mL and the Biological activity (U/mL); Atacicept 25/1; Zero Time (5° C. block) was 140000 U/mL. The Biological activity (U/mL); Atacicept 25/1; Zero Time (25° C. block) was 140000 U/mL, the Biological activity (U/mL); Atacicept 25/1.2; 1 Mo +5° C. was 116000 U/mL and the Biological activity (U/mL); Atacicept 25/1.2; 1 Mo+25° C. was 114000 U/mL. For the same substance, the Biological activity (U/mL); Atacicept 25/1.2; 2 Mo +5° C. was 126000 U/mL, the Biological activity (U/mL); Atacicept 25/1.2; 2 Mo+25° C. was 118000 U/mL and the Biological activity (U/mL); Atacicept 25/1.2; 3 Mo +5° C. was 122000 U/mL. For the same substance, the Biological activity (U/mL); Atacicept 25/1.2; 3 Mo+25° C. was 114000 U/mL, the Biological activity (U/mL); Atacicept 25/1.2; 6 Mo +5° C. was 115000 U/mL and the Biological activity (U/mL); Atacicept 25/1.2; 6 Mo+25° C. was 103000 U/mL. It also gave a Biological activity (U/mL); Atacicept 25/1.2; 9 Mo +5° C. of 124000 U/mL, a Biological activity (U/mL); Atacicept 25/1.2; 12 Mo +5° C. of 106000 U/mL and a Biological activity (U/mL); Atacicept 25/1.2; 18 Mo +5° C. of 113000 U/mL. For the same substance, the Biological activity (U/mL); Atacicept 25/1.2; Zero Time (5° C. block) was 112000 U/mL, the Biological activity (U/mL); Atacicept 25/1.2; Zero Time (25° C. block) was 112000 U/mL and the Biological activity (U/mL); Atacicept 75/1; 1 Mo +5° C. was 410000 U/mL. It also gave a Biological activity (U/mL); Atacicept 75/1; 1 Mo+25° C. of 388000 U/mL, a Biological activity (U/mL); Atacicept 75/1; 2 Mo +5° C. of 380000 U/mL and a Biological activity (U/mL); Atacicept 75/1; 2 Mo+25° C. of 337000 U/mL. The Biological activity (U/mL); Atacicept 75/1; 3 Mo +5° C. was 374000 U/mL, the Biological activity (U/mL); Atacicept 75/1; 3 Mo+25° C. was 365000 U/mL and the Biological activity (U/mL); Atacicept 75/1; 6 Mo +5° C. was 364000 U/mL. The Biological activity (U/mL); Atacicept 75/1; 6 Mo+25° C. was 328000 U/mL, the Biological activity (U/mL); Atacicept 75/1; 9 Mo +5° C. was 468000 U/mL and the Biological activity (U/mL); Atacicept 75/1; 12 Mo +5° C. was 346000 U/mL. It also gave a Biological activity (U/mL); Atacicept 75/1; Zero Time (5° C. block) of 423000 U/mL, a Biological activity (U/mL); Atacicept 75/1; Zero Time (25° C. block) of 423000 U/mL and a Biological activity (U/mL); Atacicept 150/1; 1 Mo +5° C. of 775000 U/mL. The Biological activity (U/mL); Atacicept 150/1; 1 Mo+25° C. was 777000 U/mL, the Biological activity (U/mL); Atacicept 150/1; 2 Mo +5° C. was 755000 U/mL and the Biological activity (U/mL); Atacicept 150/1; 2 Mo+25° C. was 720000 U/mL. It also gave a Biological activity (U/mL); Atacicept 150/1; 3 Mo +5° C. of 819000 U/mL, a Biological activity (U/mL); Atacicept 150/1; 3 Mo+25° C. of 761000 U/mL and a Biological activity (U/mL); Atacicept 150/1; 6 Mo +5° C. of 815000 U/mL. The Biological activity (U/mL); Atacicept 150/1; 6 Mo+25° C. was 677000 U/mL, the Biological activity (U/mL); Atacicept 150/1; 9 Mo +5° C. was 843000 U/mL and the Biological activity (U/mL); Atacicept 150/1; 12 Mo +5° C. was 810000 U/mL. For the same substance, the Biological activity (U/mL); Atacicept 150/1; 18 Mo +5° C. was 565000 U/mL, the Biological activity (U/mL); Atacicept 150/1; Zero Time (5° C. block) was 836000 U/mL and the Biological activity (U/mL); Atacicept 150/1; Zero Time (25° C. block) was 836000 U/mL. It also gave a Biological activity (U/mL); Atacicept 150/1.2; 1 Mo +5° C. of 643000 U/mL, a Biological activity (U/mL); Atacicept 150/1.2; 1 Mo+25° C. of 695000 U/mL and a Biological activity (U/mL); Atacicept 150/1.2; 2 Mo +5° C. of 743000 U/mL. For the same substance, the Biological activity (U/mL); Atacicept 150/1.2; 2 Mo+25° C. was 697000 U/mL, the Biological activity (U/mL); Atacicept 150/1.2; 3 Mo +5° C. was 695000 U/mL and the Biological activity (U/mL); Atacicept 150/1.2; 3 Mo+25° C. was 607000 U/mL. For the same substance, the Biological activity (U/mL); Atacicept 150/1.2; 6 Mo +5° C. was 645000 U/mL, the Biological activity (U/mL); Atacicept 150/1.2; 6 Mo+25° C. was 587000 U/mL and the Biological activity (U/mL); Atacicept 150/1.2; 9 Mo +5° C. was 714000 U/mL. For the same substance, the Biological activity (U/mL); Atacicept 150/1.2; 12 Mo +5° C. was 620000 U/mL, the Biological activity (U/mL); Atacicept 150/1.2; 18 Mo +5° C. was 551000 U/mL and the Biological activity (U/mL); Atacicept 150/1.2; Zero Time (5° C. block) was 647000 U/mL. For the same substance, the Biological activity (U/mL); Atacicept 150/1.2; Zero Time (25° C. block) was 647000 U/mL.
Substance TACI-Fc5 (Fc fusion) has a Bioassay (U/mL); 21A, 70 mg/mL; 2-8° C.; 4 w of 366000 U/mL, a Bioassay (U/mL); 21A, 70 mg/mL; 2-8° C.; 8 w of 319000 U/mL and a Bioassay (U/mL); 21A, 70 mg/mL; 2-8° C.; 13 w of 388000 U/mL. For the same substance, the Bioassay (U/mL); 21A, 70 mg/mL; 2-8° C.; time 0 was 348000 U/mL, the Bioassay (U/mL); 21A, 70 mg/mL; 25° C.; 4 w was 312000 U/mL and the Bioassay (U/mL); 21A, 70 mg/mL; 25° C.; 8 w was 279000 U/mL. The Bioassay (U/mL); 21A, 70 mg/mL; 25° C.; 13 w was 305000 U/mL, the Bioassay (U/mL); 21A, 70 mg/mL; 25° C.; time 0 was 348000 U/mL and the Bioassay (U/mL); 21B, 70 mg/mL; 2-8° C.; 4 w was 318000 U/mL. For the same substance, the Bioassay (U/mL); 21B, 70 mg/mL; 2-8° C.; 8 w was 290000 U/mL, the Bioassay (U/mL); 21B, 70 mg/mL; 2-8° C.; 13 w was 358000 U/mL and the Bioassay (U/mL); 21B, 70 mg/mL; 2-8° C.; time 0 was 336000 U/mL. The Bioassay (U/mL); 21B, 70 mg/mL; 25° C.; 4 w was 302000 U/mL, the Bioassay (U/mL); 21B, 70 mg/mL; 25° C.; 8 w was 268000 U/mL and the Bioassay (U/mL); 21B, 70 mg/mL; 25° C.; 13 w was 343000 U/mL. It also gave a Bioassay (U/mL); 21B, 70 mg/mL; 25° C.; time 0 of 336000 U/mL, a Bioassay (U/mL); 21C, 70 mg/mL; 2-8° C.; 4 w of 334000 U/mL and a Bioassay (U/mL); 21C, 70 mg/mL; 2-8° C.; 8 w of 307000 U/mL. For the same substance, the Bioassay (U/mL); 21C, 70 mg/mL; 2-8° C.; 13 w was 335000 U/mL, the Bioassay (U/mL); 21C, 70 mg/mL; 2-8° C.; time 0 was 323000 U/mL and the Bioassay (U/mL); 21C, 70 mg/mL; 25° C.; 4 w was 316000 U/mL. It also gave a Bioassay (U/mL); 21C, 70 mg/mL; 25° C.; 8 w of 269000 U/mL, a Bioassay (U/mL); 21C, 70 mg/mL; 25° C.; 13 w of 318000 U/mL and a Bioassay (U/mL); 21C, 70 mg/mL; 25° C.; time 0 of 323000 U/mL. It also gave a Bioassay (U/mL); 21D, 100 mg/mL; 2-8° C.; 4 w of 452000 U/mL, a Bioassay (U/mL); 21D, 100 mg/mL; 2-8° C.; 8 w of 432000 U/mL and a Bioassay (U/mL); 21D, 100 mg/mL; 2-8° C.; 13 w of 490000 U/mL. The Bioassay (U/mL); 21D, 100 mg/mL; 2-8° C.; time 0 was 461000 U/mL, the Bioassay (U/mL); 21D, 100 mg/mL; 25° C.; 4 w was 509000 U/mL and the Bioassay (U/mL); 21D, 100 mg/mL; 25° C.; 8 w was 431000 U/mL. For the same substance, the Bioassay (U/mL); 21D, 100 mg/mL; 25° C.; 13 w was 419000 U/mL, the Bioassay (U/mL); 21D, 100 mg/mL; 25° C.; time 0 was 461000 U/mL and the Bioassay (U/mL); 21E, 100 mg/mL; 2-8° C.; 4 w was 439000 U/mL. For the same substance, the Bioassay (U/mL); 21E, 100 mg/mL; 2-8° C.; 8 w was 436000 U/mL, the Bioassay (U/mL); 21E, 100 mg/mL; 2-8° C.; 13 w was 470000 U/mL and the Bioassay (U/mL); 21E, 100 mg/mL; 2-8° C.; time 0 was 459000 U/mL. The Bioassay (U/mL); 21E, 100 mg/mL; 25° C.; 4 w was 442000 U/mL, the Bioassay (U/mL); 21E, 100 mg/mL; 25° C.; 8 w was 396000 U/mL and the Bioassay (U/mL); 21E, 100 mg/mL; 25° C.; 13 w was 405000 U/mL. The Bioassay (U/mL); 21E, 100 mg/mL; 25° C.; time 0 was 459000 U/mL, the Bioassay (U/mL); 21F, 100 mg/mL; 2-8° C.; 4 w was 470000 U/mL and the Bioassay (U/mL); 21F, 100 mg/mL; 2-8° C.; 8 w was 407000 U/mL. The Bioassay (U/mL); 21F, 100 mg/mL; 2-8° C.; 13 w was 424000 U/mL, the Bioassay (U/mL); 21F, 100 mg/mL; 2-8° C.; time 0 was 456000 U/mL and the Bioassay (U/mL); 21F, 100 mg/mL; 25° C.; 4 w was 449000 U/mL. It also gave a Bioassay (U/mL); 21F, 100 mg/mL; 25° C.; 8 w of 387000 U/mL, a Bioassay (U/mL); 21F, 100 mg/mL; 25° C.; 13 w of 476000 U/mL and a Bioassay (U/mL); 21F, 100 mg/mL; 25° C.; time 0 of 456000 U/mL. The Bioassay (U/mL); 21G, 100 mg/mL; 2-8° C.; 4 w was 543000 U/mL, the Bioassay (U/mL); 21G, 100 mg/mL; 2-8° C.; 8 w was 401000 U/mL and the Bioassay (U/mL); 21G, 100 mg/mL; 2-8° C.; 13 w was 445000 U/mL. The Bioassay (U/mL); 21G, 100 mg/mL; 2-8° C.; time 0 was 494000 U/mL, the Bioassay (U/mL); 21G, 100 mg/mL; 25° C.; 4 w was 497000 U/mL and the Bioassay (U/mL); 21G, 100 mg/mL; 25° C.; 8 w was 433000 U/mL. It also gave a Bioassay (U/mL); 21G, 100 mg/mL; 25° C.; 13 w of 441000 U/mL, a Bioassay (U/mL); 21G, 100 mg/mL; 25° C.; time 0 of 494000 U/mL and a Bioassay (U/mL); 21H, 100 mg/mL; 2-8° C.; 4 w of 446000 U/mL. For the same substance, the Bioassay (U/mL); 21H, 100 mg/mL; 2-8° C.; 8 w was 388000 U/mL, the Bioassay (U/mL); 21H, 100 mg/mL; 2-8° C.; 13 w was 445000 U/mL and the Bioassay (U/mL); 21H, 100 mg/mL; 2-8° C.; time 0 was 472000 U/mL. The Bioassay (U/mL); 21H, 100 mg/mL; 25° C.; 4 w was 465000 U/mL, the Bioassay (U/mL); 21H, 100 mg/mL; 25° C.; 8 w was 366000 U/mL and the Bioassay (U/mL); 21H, 100 mg/mL; 25° C.; 13 w was 434000 U/mL. The Bioassay (U/mL); 21H, 100 mg/mL; 25° C.; time 0 was 472000 U/mL.
